Each block holds one binder with its values, some of them ahead of it.
Experiments:
Cynomolgus Tissue Factor [1] = target: T1, Cynomolgus Tissue Factor (cynomolgus); assay: BLI, batch 2
T1 chain: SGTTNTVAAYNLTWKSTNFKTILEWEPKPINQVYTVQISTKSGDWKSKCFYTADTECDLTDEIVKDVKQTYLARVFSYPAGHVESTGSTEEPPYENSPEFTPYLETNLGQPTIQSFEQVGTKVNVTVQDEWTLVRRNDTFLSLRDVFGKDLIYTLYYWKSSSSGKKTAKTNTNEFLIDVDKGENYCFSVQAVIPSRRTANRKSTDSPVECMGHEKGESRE

Human Tissue Factor [2] = target: T2, Human Tissue Factor (human); assay: BLI, batch 2
T2 chain: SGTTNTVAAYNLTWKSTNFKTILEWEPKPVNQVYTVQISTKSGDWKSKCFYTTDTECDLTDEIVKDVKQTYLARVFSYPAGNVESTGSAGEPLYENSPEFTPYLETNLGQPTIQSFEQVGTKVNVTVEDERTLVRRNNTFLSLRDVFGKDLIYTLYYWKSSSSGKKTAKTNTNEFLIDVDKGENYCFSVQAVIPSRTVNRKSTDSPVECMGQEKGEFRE

Mouse Tissue Factor [3] = target: T3, Mouse Tissue Factor (mouse); assay: BLI, batch 1
T3 chain: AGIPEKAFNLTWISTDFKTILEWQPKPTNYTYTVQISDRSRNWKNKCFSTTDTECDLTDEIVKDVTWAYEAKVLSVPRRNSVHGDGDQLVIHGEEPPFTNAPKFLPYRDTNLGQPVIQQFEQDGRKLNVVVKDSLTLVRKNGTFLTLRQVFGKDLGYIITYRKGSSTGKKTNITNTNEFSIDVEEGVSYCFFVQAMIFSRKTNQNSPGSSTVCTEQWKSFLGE

Human Tissue Factor [4] = target: T2, Human Tissue Factor; assay: BLI, batch 1
Cynomolgus Tissue Factor [5] = target: T1, Cynomolgus Tissue Factor; assay: BLI, batch 1
Mouse Tissue Factor [6] = target: T3, Mouse Tissue Factor; assay: BLI, batch 2
Cynomolgus Tissue Factor [7] = target: T1, Cynomolgus Tissue Factor; assay: BLI
Mouse Tissue Factor [8] = target: T3, Mouse Tissue Factor; assay: BLI
Human Tissue Factor [9] = target: T2, Human Tissue Factor; assay: BLI

Kd (Cynomolgus Tissue Factor [1]): 240 µM
Kd (Human Tissue Factor [2]): 36 µM
Kd (Mouse Tissue Factor [3]): 107 nM
Kd (Human Tissue Factor [4]): 1.13 nM
Kd (Cynomolgus Tissue Factor [5]): 0.673 nM
Kd (Mouse Tissue Factor [6]): 2 mM
B1: EXMA-006 (antibody)
chain 1: QVQLVQSGAEVKKPGASVKVSCKASGYTFDVYGISWVRQAPGQGLEWMGWIAPYSGNTNYAQKLQGRVTMTTDTSTSTAYMELRSLRSDDTAVYYCARDAGTYSPFGYGMDVWGQGTTVTVSS
chain 2: DIQMTQSPSTLSASVGDRVTITCQASQSINNWLAWYQQKPGKAPKLLIYKAYNLESGVPSRFSGSGSGTEFTLTISSLQPDDFATYYCQLFQSLPPFTFGGGTKVEIK
modifications: unconjugated TF antibody; representative batches 1 and 2

Kd (Cynomolgus Tissue Factor [7]): 19 µM
Kd (Mouse Tissue Factor [8]): 210 µM
Kd (Human Tissue Factor [9]): 7.1 µM
B2: TF-ADC 6-8 (antibody)
chain 1: not shown
chain 2: DIQMTQSPSTLSASVGDRVTITCQASQSINNWLAWYQQKPGKAPKLLIYKAYNLESGVPSRFSGSGSGTEFTLTISSLQPDDFATYYCQLFQSLPPFTFGGGTKVEIKRTVAAPSVFIFPPSDEQLKSGTASVVCLLNNFYPREAKVQWKVDNALQSGNSQESVTEQDSKDSTYSLSSTLTLSKADYEKHKVYACEVTHQGLSSPVTKSFNRGEC
modifications: ADC, linker-payload conjugated at fGly' in CH1 and C-terminus, DAR about 8

From patent US20260325667 (published 2026)
